# Measured values taken from PMC5861037.
# Target: DosR (Mycobacterium tuberculosis H37Rv) (UniProt P9WMF9)
# Assay: EMSA
# Settings: 25 mM Tris-HCl pH 8.0, 20 mM KCl, 0.5 mM EDTA, 6 mM MgCl2, 1 mM DTT, 1 ug/mL poly I:C; room temperature, 10 min; 6.5% native Tris-glycine PAGE, silver staining
sequence,measurement,value
TTGATGCCTCCTAATCGATGGAAACGGATGCCTTTGATCCGACCAGCCCATCGTGGCCAGGGCTAGGGACAGAAGTCCCCGAAGCGCGGGCCATTTGTCCGCGCCCGTCGGTGATCCACTTGGGGACCATTGACCCTGTTGTCTGCCA (double strand) [acr promoter fragment],binding,binds
